Experimental data taken from US20080113907A1, “Uses Of Galectin-2” (Charite-Universitat-Smedizin Berlin, priority 2004, published 2008).

Experiments:
[1] = system: dextran sodium sulfate induced colitis; assay: Prevention of DSS induced acute colitis, disease activity index (DAI); type: in vivo, Balb/c mice
Experimental: Colitis was induced in 8- to 10-week-old, female, Balb/c mice (Jackson Laboratories, Bar Harbor, Me.) by adding 5% DSS (Sigma Chemical Co., St. Louis, Mo.) (Dextran Sodiumsulfate (DSS) to their drinking water and allowing them to drink ad libitum. Groups of mice were treated either with 1 mg/kg BW (body weight) galectin-2 intraperitoneally or PBS 2 h before DSS administration. Mice were weighed and inspected for diarrhea and rectal bleeding. Seven days after induction of colitis by DSS, mice were killed, their entire colon was resected, and its length was measured and weighed. The disease activity index (DAI; i.e., the combined score of weight loss and bleeding) was determined according to a standard scoring system.
The disease activity index: Loss in bodyweight: 0=no loss; 1=5% to 10%; 2=10% to 15%; 3=15% to 20%; 4 ? 20%.
Hemoccult: 0=no blood; 2=positive; 4=gross blood.
In this experiment the DAI ranges from 0 to 8. The higher the DAI score the more severely the animal had been affected by colitis.
Colitis was induced in 8- to 10-week-old, female, Balb/c mice (Jackson Laboratories, Bar Harbor, Me.) by adding 5% DSS (Sigma Chemical Co., St. Louis, Mo.) (Dextran Sodiumsulfate (DSS) to their drinking water and allowing them to drink ad libitum. Groups of respectively 10 mice were treated either with Galectin-2 subcutaneously (s.c.) or intraperitoneally (i.p.) 2 h before DSS administration. In one trial with 10 mice the doses of Galectin-2 was doubled (administered i.p.) and compared to the treatment of 10 mice with Tacrolimus (FK506) (administered i.p.) in equal concentrations. In parallel a group of 10 mice was treated with 0.9% NaCl instead of Galectin-2 as control. Mice were weighed and inspected for diarrhea and rectal bleeding. 10 days after induction of colitis by DSS, mice were killed, their entire colon was resected, and its length was measured and weighed. The disease activity index (DAI; i.e., the combined score of weight loss and bleeding) was determined according to a standard scoring system.
The disease activity index: Loss in body weight: 0=no loss; 1=5% to 10%; 2=10% to 15%; 3=15% to 20%; 4 ? 20%.

[2] = Toxicity study with supratherapeutic dose in healthy mice; type: in vivo, Balb/c mice
Experimental: In addition, Balb/c mice (not treated with DSS) were treated with 100 mg/kg body weight-Galectin-2, a dose that was up to 50-fold higher than doses of Galectin-2 that caused optimal anti-inflammatory effects in DSS treated mice (optimal therapeutic doses ranged from 1.5-3 mg/kg body weight per day). In these toxicity studies Balb/c mice (n=5), weighing on average 20 g, were treated with 100 mg/kg body weight Galectin-2 once daily i.p. for 5 days. The mice gained about 7±1.7% weight during the 5 day treatment period. […] The mice were sacrificed following the 5 day treatment period and organs were collected for pathological assessment by an experienced pathologist.

PBT [3] = assay: Apoptosis regulator proteins by immunoblotting and flow cytometry; type: cell-based, human
Experimental: For immunoblotting cells were washed in PBS, and lysed in cell lysis buffer (1% Triton-X, 0.5% NP-40, 0.1% SDS, 0.5% sodium deoxycholate, 5 mM EDTA, 50 mM and 50 mM protease- and phosphatase-inhibitor cocktail 2, 1 mM PMSF, 100 μg/ml trypsin-chymotrypsin inhibitor, 100 μg/ml chymostatin in PBS). The concentration of proteins in each lysate was measured using the Bio-Rad protein assay (Bio-Rad Laboratories, Hercules, Calif.). Equivalent amounts of protein (10 μg) were fractionated on a 10-20% Tris-glycine gel and electrotransferred to a nitrocellulose membrane (Novex, San Diego, Calif.). Membranes were blocked with 5% milk in 0.1% Tween 20-PBS (Fisher Scientific, Hanover Park, Ill.), followed by incubation for 60 m in at room temperature with the indicated primary antibody. The membranes were washed six times with 0.1% Tween 20-PBS and then incubated for 1 h with the appropriate horseradish peroxidase-conjugated secondary antibody (Santa Cruz Biotechnology), washed, and incubated with the chemiluminescent substrate (Perkin-Elmer, Carlsbad, Calif.) for 5 minutes. The membranes were then exposed to film (Amersham, Arlington Heights, Ill.).
For surface staining, cells were washed twice in ice-cold PBS and 1×10^6 cells were resuspended in flow buffer (HBSS containing 1% BSA and 0.1% sodium azide). Cells were incubated with the respective mAb at predetermined saturating concentrations or with isotype-matched nonspecific mouse mAb (DAKO) for 30 min at 4° C., washed twice with flow buffer, and incubated with FITC-conjugated goat anti-mouse IgG for 30 min at 4° C. The cells were again washed twice with flow buffer, fixed in 1% paraformaldehyde and analyzed by a single laser flow cytometer (FacsCalibur, […]), using Cell Quest software (BD Pharmingen). Cells stained with a negative control Ab were gated to contain <2% positive cells. To perform analysis of intracellular proteins, cells were washed twice with PBS, adjusted to 1×10^6 cells per sample, and fixed in 90% methanol at −20° C. After fixation, cells were washed twice with PBS and incubated with a monoclonal mouse anti-bax, Bcl-2, Rb, Cyclin A, p21, p27, or p53 antibody for 45 minutes at 4° C., followed by an incubation with a goat anti-mouse FITC-conjugated mAb (Biosource) for 45 minutes at 4° C. Thereafter cells were washed and analyzed by flow cytometry as described above. The background level of immunofluorescence was determined by incubating cells with FITC-conjugated mouse IgG (isotype control).

PBT [4] = assay: Cytokine secretion (cytometric bead array); type: cell-based, human
Experimental: To determine cytokine secretion, PBT were cultured for 48 h with or without anti-CD3 mAb and incubated in the presence or absence of 0, 10, or 50 μg/ml Gal-2. The supernatant was then collected and cytokine secretion determined by a cytometric bead array, performed according to the manufacturer's instruction (BD Pharmingen). Briefly, six bead populations with distinct fluorescence intensities, coated with capture antibodies specific for TNF-α, IFN-γ, IL-10, IL-5, IL-4, and IL-2 proteins, were mixed with PE-conjugated detection anti-bodies and incubated with recombinant standards or test sample to form sandwich complexes. Following acquisition of sample data using flow cytometry, the cytokine concentrations were calculated using the BD CBA analysis software.

[5] = 100 mg/kg once daily i.p. for 5 days

B1: galectin-2: β-galactoside binding lectin, non-covalent dimer with subunits of about 14 kDa; recombinant human or rat (SEQ ID NO:1, 2) (protein)
chain: MAGELEVKNMDMKPGSTLKITGSIADGTDGFVINLGQGTDKLNLHFNPRFSESTIVCNSLDGSNWGQEQREDHLCFSPGSEVKFTVTFESDKFKVKLPDGHELTFPNRLGHSHLSYLSVRGGFNMSSFKLKE
[1]; 1 mg/kg BW i.p. 2 h before DSS, seven days after induction, mean ± SD, DAI 0 to 8, control 6.3 ± 2.30
  DAI (disease activity index): 4.5 ± 2.1,
[1]; 1 mg/kg i.p., 10 days after induction, control 6.5 ± 0.3
  DAI (disease activity index): 5.0 ± 0.7,
[1]; 1 mg/kg s.c., 10 days after induction, control 6.5 ± 0.3
  DAI (disease activity index): 5.8 ± 0.7,
[1]; 2 mg/kg i.p., 10 days after induction, control 6.5 ± 0.3
  DAI (disease activity index): 2.6 ± 0.6,
[2]; [5]
  mortality: None of these animals died
  pathological assessment of heart, kidney, lung, liver: did not reveal any microscopic or macroscopic damage
  weight gain: about 7±1.7%
[2]; 100 mg/kg versus 2×1 mg/kg
  highest dose evaluated relative to optimal dose: about 50 fold
[2]; broad dose range up to 100 mg/kg
  dose limiting toxicities: no dose limiting toxicities were observed
PBT [3]; 0, 25, 50 μg/ml, 48 h
  bax protein expression: increases
  bcl-2 protein expression: significantly reduces
PBT [3]; data not shown
  cytochrome c release: dose-dependently increased cytochrome c release in activated, but not resting T cells
PBT [3]; immunoblotting
  DNA-fragmentation factor (DFF): dose-dependently upregulated
PBT [4]; anti-CD3 activated T cells
  IFN-γ production: downregulated significantly and dose-dependently
  IL-2 secretion: not influenced
  IL-4 secretion: not altered
  IL-5 secretion: increasing
  IL-10 secretion: increasing
  TNF-α production: downregulated significantly and dose-dependently
PBT [4]; resting T cells
  cytokine production of resting T cells: failed to modulate cytokine production of resting T cells
